In article PMC11079477 (iScience, 2024):
Read-outs that look alike come from different tables or passages of the source.

Experiments:
[1] = target: the molecule itself; experiment: reducing SDS-PAGE and immunoblot
[2] = target: the molecule itself; experiment: non-reducing SDS-PAGE
[3] = target: the molecule itself; experiment: 4M urea SDS-PAGE
[4] = target: the molecule itself; experiment: non-reducing SDS-PAGE and Western blot
[5] = target: the molecule itself; experiment: reducing SDS-PAGE and immunoblot of a membrane preparation
[6] = target: the molecule itself

B1: PfP2-HA of P. falciparum 3D7 P2-HA glmS transgenic parasites (natural protein, Plasmodium falciparum 3D7, UniProt O00806 1-112, looked up)
chain: MAMKYVAAYLMCVLGGNENPSTKEVKNVLGAVNADVEDEVLNNFIDSLKGKSCHELITDGLKKLQNIGGGVAAAPAGAAAVETAEAKKEDKKEEKKEEEEEEEDDLGFSLFG
[1]
  stoichiometry N: 4

B2: 6x His tag recombinant PfP2 (P. falciparum 60S stalk ribosomal protein P2) (natural protein, Plasmodium falciparum 3D7, UniProt O00806 1-112, looked up)
chain: MAMKYVAAYLMCVLGGNENPSTKEVKNVLGAVNADVEDEVLNNFIDSLKGKSCHELITDGLKKLQNIGGGVAAAPAGAAAVETAEAKKEDKKEEKKEEEEEEEDDLGFSLFG
[2]
  stoichiometry N: 4

B3: LAFS-induced denaturation-resistant rec. PfP2 tetramer (natural protein, Plasmodium falciparum 3D7, UniProt O00806 1-112, looked up)
chain: MAMKYVAAYLMCVLGGNENPSTKEVKNVLGAVNADVEDEVLNNFIDSLKGKSCHELITDGLKKLQNIGGGVAAAPAGAAAVETAEAKKEDKKEEKKEEEEEEEDDLGFSLFG
modifications: 11th methionine (Met11) oxidized; Met11 S-O-S Met11 linkages between chains as the paper proposes
[3]
  stoichiometry N: 4

B4: PfP2C12A (Clone 1, C12A) (natural protein, Plasmodium falciparum 3D7, UniProt O00806 1-112, looked up)
chain: MAMKYVAAYLMAVLGGNENPSTKEVKNVLGAVNADVEDEVLNNFIDSLKGKSCHELITDGLKKLQNIGGGVAAAPAGAAAVETAEAKKEDKKEEKKEEEEEEEDDLGFSLFG
[4]
  stoichiometry N: 2

B5: PfP2 of wild type P. falciparum 3D7 parasites (natural protein, UniProt O00806 1-112, looked up)
chain: MAMKYVAAYLMCVLGGNENPSTKEVKNVLGAVNADVEDEVLNNFIDSLKGKSCHELITDGLKKLQNIGGGVAAAPAGAAAVETAEAKKEDKKEEKKEEEEEEEDDLGFSLFG
modifications: 11th methionine (Met11) oxidized in the parasite membrane preparation (ESI MS/MS)
[1]
  stoichiometry N: 4
[5]
  stoichiometry N: 2

B6: LAFS-induced alkylated rec. PfP2 tetramer (natural protein, Plasmodium falciparum 3D7, UniProt O00806 1-112, looked up)
chain: MAMKYVAAYLMCVLGGNENPSTKEVKNVLGAVNADVEDEVLNNFIDSLKGKSCHELITDGLKKLQNIGGGVAAAPAGAAAVETAEAKKEDKKEEKKEEEEEEEDDLGFSLFG
modifications: cysteines alkylated using iodoacetamide (IAA) after reduction with DTT
[6]
  stoichiometry N: 4
